The values below come from PMC4069020, “A 14.7 kDa Protein from Francisella tularensis subsp. novicida (Named FTN_1133), Involved in the Response to Oxidative Stress Induced by Organic Peroxides, Is Not Endowed with Thiol-Dependent Peroxidase Activity” (PLoS ONE, 2014).

The series deals with the molecule itself. The experiment in a line: non-reducing SDS-PAGE.

One may read the stoichiometry N as the number of molecules, sites or subunits per partner or assembly.

B1: FTN_1133 (14.7 kDa protein from Francisella tularensis subsp. novicida), recombinant His-tagged (natural protein)
chain: MAISQNVIKILQDIDELDLFSNISDEWSTLLNESDDNIKIKKLYSALVKESIRRETAERLAKDAKSYCDLVQEQAKQRISDLKESLESQITFLTQQIKDLKVESAKNLDYYRNELKKANRSLIDNKS
notes: also called His-FTN_1133
On to B1, for which the “stoichiometry N” value is 2.
